Kd data for one molecule are collected here from doi:10.1101/2025.08.03.668247, “The structure of Egalitarian in complex with the K10 mRNA localization signal reveals a modular binding surface required for function”.

Assay in all cases: fluorescence anisotropy; FA: 20 mM HEPES-NaOH pH 7.5, 100 mM NaCl, 10% glycerol, 20 C, 10 nM FAM-RNA; competition: 150 nM Egl512-819 + 10 nM FAM-K10 TLS, same buffer
Details in all cases: protein: recombinant; tags: N-terminal GST; label: 5'-6-FAM; hairpin with two bulges
In general terms: Polarisation of emitted light reports the rotation of a fluorescent probe.

For one data set, the target named is T1, K751E (Drosophila melanogaster, UniProt Q9W1K4 512-819, K751E).
T1 sequence: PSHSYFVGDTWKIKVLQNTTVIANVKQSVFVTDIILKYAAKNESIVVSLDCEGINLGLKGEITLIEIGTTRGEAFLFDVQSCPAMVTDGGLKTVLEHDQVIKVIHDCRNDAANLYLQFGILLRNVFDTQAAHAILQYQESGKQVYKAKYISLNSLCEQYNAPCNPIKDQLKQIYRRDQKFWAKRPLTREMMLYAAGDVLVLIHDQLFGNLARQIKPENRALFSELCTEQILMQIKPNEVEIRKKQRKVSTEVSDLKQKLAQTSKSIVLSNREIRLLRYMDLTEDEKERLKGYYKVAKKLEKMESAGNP

The target of the next data set is T2, R788E (Drosophila melanogaster, UniProt Q9W1K4 512-819, R788E).
T2 sequence: T1 sequence with E240K, R277E

For the next data set, the target named is T3, K678A (Drosophila melanogaster, UniProt Q9W1K4 512-819, K678A).
T3 sequence: T1 sequence with K167A, E240K

In the next data set the target is T4, Y685A (Drosophila melanogaster, UniProt Q9W1K4 512-819, Y685A).
T4 sequence: T1 sequence with Y174A, E240K

In another data set the target is T5, K758E (Drosophila melanogaster, UniProt Q9W1K4 512-819, K758E).
T5 sequence: T1 sequence with E240K, K247E

In a further data set the target is T6, L-Triple (Drosophila melanogaster, UniProt Q9W1K4 512-819, R753E;K754E;K755E).
T6 sequence: T1 sequence with E240K, R242E, K243E, K244E

In general, Kd refers to the constant that tells how readily two partners part at equilibrium.

Changes are numbered by the printed parent chain.

B1: K10 TLS (FAM) (structured_RNA)
RNA: CUUGAUUGUAUUUUUAAAUUAAUUCUUAAAAACUACAAAUUAAG
In the case of B1, the Kd with K751E came out at 139 ± 28 nM; with R788E, 313 ± 23 nM; with K678A it was 295 ± 8 nM; with Y685A it was 221 ± 11 nM; in the data set with K758E, 380 ± 65 nM; with L-Triple it was 1460 ± 302 nM.
